Experimental data: the supplement of paper PMC10567573

B1: C1orf55 (parent)
chain: FTSPDYQQQCHEMAERLEDSVLKG
B2: RTP4 (parent)
chain: TYWEHWTSQGQVRMRLFGQRCQKC

Variants of: B1
Experiment: protein stability index of a GFP-peptide fusion (GPS, HEK-293T) (PSI 1-6); higher = more stable
Settings: c terminus: a fixed tail appended
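Also: lentivirally expressed fusions sorted by FACS into six bins by GFP to DsRed ratio, PSI derived from sequencing read proportions per bin multiplied by bin number.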

Going from FTSPDYQQQCHEMAERLEDRVLKG [S20R] to FTSPDYQQQCHEMAERLEDTVLKG [S20T], the protein stability index falls from 2.47 to 2.08.

Going from FTSPDYQQQCHEMAERLEDVVLKG [S20V] to FTSPDYQQQCHEMAERLEDWVLKG [S20W], the protein stability index falls from 2.7 to 2.08.

First: FTSPDYQQQCHEMAERLEDYVLKG [S20Y]
Second: FTSPDYQQQCHEMAERLEDSALKG [V21A]
The protein stability index of the first is lower: 1.91 for the first, 3.08 for the second.

First: FTSPDYQQQCHEMAERLEDSCLKG [V21C]
Second: FTSPDYQQQCHEMAERLEDSDLKG [V21D]
The protein stability index of the first is lower: 2.12 for the first, 2.34 for the second.

Compared with FTSPDYQQQCHEMAERLEDSELKG [V21E], FTSPDYQQQCHEMAERLEDSFLKG [V21F] is lower in protein stability index: 2.87 for the first, 2.01 for the second.

First: FTSPDYQQQCHEMAERLEDSGLKG [V21G]
Second: FTSPDYQQQCHEMAERLEDSHLKG [V21H]
The protein stability index of the first is lower: 2.09 for the first, 2.41 for the second.

Going from FTSPDYQQQCHEMAERLEDSILKG [V21I] to FTSPDYQQQCHEMAERLEDSKLKG [V21K], the protein stability index rises from 2.55 to 2.99.

Compared with FTSPDYQQQCHEMAERLEDSLLKG [V21L], FTSPDYQQQCHEMAERLEDSMLKG [V21M] is lower in protein stability index: 2.17 for the first, 1.9 for the second.

Going from FTSPDYQQQCHEMAERLEDSNLKG [V21N] to FTSPDYQQQCHEMAERLEDSPLKG [V21P], the protein stability index falls from 2.94 to 2.73.

Going from FTSPDYQQQCHEMAERLEDSQLKG [V21Q] to FTSPDYQQQCHEMAERLEDSRLKG [V21R], the protein stability index rises from 2.21 to 2.33.

First: FTSPDYQQQCHEMAERLEDSSLKG [V21S]
Second: FTSPDYQQQCHEMAERLEDSTLKG [V21T]
The protein stability index of the first is lower: 2.56 for the first, 2.65 for the second.

Compared with FTSPDYQQQCHEMAERLEDSWLKG [V21W], FTSPDYQQQCHEMAERLEDSYLKG [V21Y] is higher in protein stability index: 1.68 for the first, 2.06 for the second.

Compared with FTSPDYQQQCHEMAERLEDSVAKG [L22A], FTSPDYQQQCHEMAERLEDSVCKG [L22C] is higher in protein stability index: 2.42 for the first, 2.62 for the second.

First: FTSPDYQQQCHEMAERLEDSVDKG [L22D]
Second: FTSPDYQQQCHEMAERLEDSVEKG [L22E]
The protein stability index of the first is higher: 2.48 for the first, 2.1 for the second.

First: FTSPDYQQQCHEMAERLEDSVFKG [L22F]
Second: FTSPDYQQQCHEMAERLEDSVGKG [L22G]
The protein stability index of the first is lower: 1.9 for the first, 2.57 for the second.

Going from FTSPDYQQQCHEMAERLEDSVHKG [L22H] to FTSPDYQQQCHEMAERLEDSVIKG [L22I], the protein stability index rises from 2.05 to 2.36.

First: FTSPDYQQQCHEMAERLEDSVKKG [L22K]
Second: FTSPDYQQQCHEMAERLEDSVMKG [L22M]
The protein stability index of the first is lower: 2.12 for the first, 2.35 for the second.

Going from FTSPDYQQQCHEMAERLEDSVNKG [L22N] to FTSPDYQQQCHEMAERLEDSVPKG [L22P], the protein stability index rises from 2.93 to 2.97.

Compared with FTSPDYQQQCHEMAERLEDSVQKG [L22Q], FTSPDYQQQCHEMAERLEDSVRKG [L22R] is lower in protein stability index: 2.79 for the first, 2.71 for the second.

Going from FTSPDYQQQCHEMAERLEDSVSKG [L22S] to FTSPDYQQQCHEMAERLEDSVTKG [L22T], the protein stability index falls from 2.76 to 2.22.

First: FTSPDYQQQCHEMAERLEDSVVKG [L22V]
Second: FTSPDYQQQCHEMAERLEDSVWKG [L22W]
The protein stability index of the first is higher: 2.75 for the first, 2.21 for the second.

First: FTSPDYQQQCHEMAERLEDSVYKG [L22Y]
Second: FTSPDYQQQCHEMAERLEDSVLAG [K23A]
The protein stability index of the first is higher: 2.26 for the first, 1.4 for the second.

Compared with FTSPDYQQQCHEMAERLEDSVLCG [K23C], FTSPDYQQQCHEMAERLEDSVLDG [K23D] is higher in protein stability index: 1.79 for the first, 2.57 for the second.

Going from FTSPDYQQQCHEMAERLEDSVLEG [K23E] to FTSPDYQQQCHEMAERLEDSVLFG [K23F], the protein stability index falls from 2.35 to 1.5.

First: FTSPDYQQQCHEMAERLEDSVLGG [K23G]
Second: FTSPDYQQQCHEMAERLEDSVLHG [K23H]
The protein stability index of the first is higher: 2.38 for the first, 1.89 for the second.

Compared with FTSPDYQQQCHEMAERLEDSVLIG [K23I], FTSPDYQQQCHEMAERLEDSVLLG [K23L] is higher in protein stability index: 2.1 for the first, 2.37 for the second.

Compared with FTSPDYQQQCHEMAERLEDSVLMG [K23M], FTSPDYQQQCHEMAERLEDSVLNG [K23N] is higher in protein stability index: 2.02 for the first, 2.6 for the second.

First: FTSPDYQQQCHEMAERLEDSVLPG [K23P]
Second: FTSPDYQQQCHEMAERLEDSVLQG [K23Q]
The protein stability index of the first is higher: 2.35 for the first, 2.23 for the second.

Compared with FTSPDYQQQCHEMAERLEDSVLRG [K23R], FTSPDYQQQCHEMAERLEDSVLSG [K23S] is lower in protein stability index: 2.57 for the first, 2.24 for the second.

Going from FTSPDYQQQCHEMAERLEDSVLTG [K23T] to FTSPDYQQQCHEMAERLEDSVLVG [K23V], the protein stability index rises from 2.13 to 3.3.

Going from FTSPDYQQQCHEMAERLEDSVLWG [K23W] to FTSPDYQQQCHEMAERLEDSVLYG [K23Y], the protein stability index falls from 2.39 to 1.99.

First: FTSPDYQQQCHEMAERLEDSVLKA [G24A]
Second: FTSPDYQQQCHEMAERLEDSVLKC [G24C]
The protein stability index of the first is lower: 1.98 for the first, 2.52 for the second.

Going from FTSPDYQQQCHEMAERLEDSVLKD [G24D] to FTSPDYQQQCHEMAERLEDSVLKE [G24E], the protein stability index rises from 1.91 to 2.74.

First: FTSPDYQQQCHEMAERLEDSVLKF [G24F]
Second: FTSPDYQQQCHEMAERLEDSVLKH [G24H]
The protein stability index of the first is higher: 2.01 for the first, 1.52 for the second.

Going from FTSPDYQQQCHEMAERLEDSVLKI [G24I] to FTSPDYQQQCHEMAERLEDSVLKK [G24K], the protein stability index rises from 1.5 to 2.49.

Going from FTSPDYQQQCHEMAERLEDSVLKL [G24L] to FTSPDYQQQCHEMAERLEDSVLKM [G24M], the protein stability index rises from 1.87 to 2.44.

First: FTSPDYQQQCHEMAERLEDSVLKN [G24N]
Second: FTSPDYQQQCHEMAERLEDSVLKP [G24P]
The protein stability index of the first is higher: 2.15 for the first, 2 for the second.

First: FTSPDYQQQCHEMAERLEDSVLKQ [G24Q]
Second: FTSPDYQQQCHEMAERLEDSVLKR [G24R]
The protein stability index of the first is higher: 2 for the first, 1.87 for the second.

First: FTSPDYQQQCHEMAERLEDSVLKS [G24S]
Second: FTSPDYQQQCHEMAERLEDSVLKT [G24T]
The protein stability index of the first is lower: 1.89 for the first, 2.26 for the second.

Compared with FTSPDYQQQCHEMAERLEDSVLKV [G24V], FTSPDYQQQCHEMAERLEDSVLKW [G24W] is higher in protein stability index: 1.72 for the first, 1.78 for the second.

For FTSPDYQQQCHEMAERLEDSVLKY [G24Y], the protein stability index was 1.8.

Variants of: B2
Experiment: as above
Settings: c terminus: a fixed tail appended

First: AYWEHWTSQGQVRMRLFGQRCQKC [T1A]
Second: CYWEHWTSQGQVRMRLFGQRCQKC [T1C]
The protein stability index of the first is lower: 1.19 for the first, 2.67 for the second.

First: DYWEHWTSQGQVRMRLFGQRCQKC [T1D]
Second: EYWEHWTSQGQVRMRLFGQRCQKC [T1E]
The protein stability index of the first is higher: 1.82 for the first, 1.36 for the second.

Going from GYWEHWTSQGQVRMRLFGQRCQKC [T1G] to HYWEHWTSQGQVRMRLFGQRCQKC [T1H], the protein stability index falls from 2.81 to 2.48.

Going from LYWEHWTSQGQVRMRLFGQRCQKC [T1L] to PYWEHWTSQGQVRMRLFGQRCQKC [T1P], the protein stability index rises from 1.88 to 2.27.

First: QYWEHWTSQGQVRMRLFGQRCQKC [T1Q]
Second: SYWEHWTSQGQVRMRLFGQRCQKC [T1S]
The protein stability index of the first is lower: 2.15 for the first, 2.18 for the second.

Compared with VYWEHWTSQGQVRMRLFGQRCQKC [T1V], WYWEHWTSQGQVRMRLFGQRCQKC [T1W] is higher in protein stability index: 1.86 for the first, 2.35 for the second.

Work on YYWEHWTSQGQVRMRLFGQRCQKC [T1Y] yielded a protein stability index of 2.21.
